Earlier results, collected in article PMC6753945.

Molecular target: CD28 (Homo sapiens) (UniProt P10747)

Q: Which Kd does the source give for CD80 (from UniProt P33681) here?
A: The Kd was 200 nM.
